In patent publication US20160304858A1:
Primed or numbered codes have the meaning given here. Where no end group is shown, it is not given here. [ ]: non-standard residue; d: D form. The star is where a group is joined. Hpra′ = its azide, alkyne or alkene has reacted where a group follows in round brackets; maleimide‑biotin = maleimide-biotin reagent joined to deprotected Cys; Man9″ = Man9 glycan attached to Hpg by CuAAC click with Man9-azide; Man9(3) = Man9-azide click-glycosylated onto Hpg; For = O=C*

Legend:
[1] = biological target: HIV broadly neutralizing antibody 2G12; experiment: radiolabelled glycopeptide with 2G12 in solution, protein G bead capture, scintillation counting
[2] = biological target: HIV broadly neutralizing antibody 2G12; experiment: BLI curve fit, 1 nM 2G12
[3] = biological target: HIV broadly neutralizing antibody 2G12; experiment: BLI curve fit, 2 nM 2G12
[4] = biological target: HIV broadly neutralizing antibody 2G12; experiment: BLI curve fit, 4 nM 2G12
[5] = biological target: HIV broadly neutralizing antibody 2G12; experiment: BLI curve fit, 8 nM 2G12
[6] = biological target: HIV broadly neutralizing antibody 2G12; experiment: BLI curve fit, 16 nM 2G12
[7] = biological target: HIV broadly neutralizing antibody 2G12; experiment: BLI curve fit, 32 nM 2G12
[8] = biological target: HIV broadly neutralizing antibody 2G12; experiment: BLI curve fit, 0.5 nM 2G12
[9] = biological target: HIV broadly neutralizing antibody 2G12; experiment: BLI (BLItz), glycopeptide on streptavidin sensor, 2G12 in solution, global 1:1 fit
[10] = biological target: HIV broadly neutralizing antibody 2G12; experiment: radiolabelled glycopeptide with 2G12, protein G bead capture (end tied by Table 4)
[11] = biological target: HIV broadly neutralizing antibody 2G12; experiment: radiolabelled glycopeptide with 2G12, protein G bead capture; low end tied to 10F6 by Table 4
[12] = biological target: HIV broadly neutralizing antibody 2G12; experiment: radiolabelled glycopeptide with 2G12, protein G bead capture; high end tied to 10V8 by Table 4

Binder	Fmax [1] [%]	Kd [1] [nM]	also measured
glycopeptide 10F12-C2,21S (peptide) peptide: For-[Hpra′](Man9″)SYVTVIPA[Hpra′](Man9″)N[Hpra′](Man9″)PEARLGIVSH[Hpra′](Man9″)PGIRRGKALYGSGSLGHHHHHHRDYKDDDDK	90	186	–
For-[Hpra′](Man9″)HPYNTSRTSA[Hpra′](Man9″)[Hpra′](Man9″)AALK[Hpra′](Man9″)QVTD[Hpra′](Man9″)YALALFHRILGSGSGC(maleimide‑biotin)A [biotinylated synthetic 10F2 glycopeptide 3]	–	–	Req [2]: 0.682; Req [3]: 0.987; Req [4]: 1.26; Req [5]: 1.37; Req [6]: 1.41; Req [7]: 1.39; Req [8]: 0.481; Kd [9]: 1.37 nM; koff [9]: 0.000151 s⁻¹; kon [9]: 111000 M⁻¹ s⁻¹
For-[Hpra′](Man9(3))PNCITQQDVR[Hpra′](Man9(3))TSIPYTYTWPGSGSLGHHHHHHRDYKDDDDK [glycopeptide 10F3-Δ11]	32	25	–
glycopeptide 10F5-C10,25S (peptide) peptide: For-[Hpra′](Man9(3))SPHLPVLLSK[Hpra′](Man9(3))VLNDGRRIVQ[Hpra′](Man9(3))SSELP[Hpra′](Man9(3))VRRSGSGSLGHHHHHHRDYKDDDDK	94	2.5	–
glycopeptide 10F6 (Fixed library, round 10) (peptide) peptide: For-[Hpra′](Man9(3))L[Hpra′](Man9(3))FIRIYPTR[Hpra′](Man9(3))QYVYHAPLLT[Hpra′](Man9(3))VR[Hpra′](Man9(3))SPTGPLIGSGSLGHHHHHHRDYKDDDDK	87	0.54	Kd [10]: 0.5 to 0.6 nM; Kd [11]: 0.5 to 5 nM
glycopeptide 10F5 (Fixed library, round 10) (cysteine pairing not given here) peptide: For-[Hpra′](Man9(3))SPHLPVLLCK[Hpra′](Man9(3))VLNDGRRIVQ[Hpra′](Man9(3))SCELP[Hpra′](Man9(3))VRRSGSGSLGHHHHHHRDYKDDDDK	93	0.97	–
For-[Hpra′](Man9(3))VLNDGRRIVQ[Hpra′](Man9(3))SCELP[Hpra′](Man9(3))VRRSGSGSLGHHHHHHRDYKDDDDK [glycopeptide 10F5-Δ11]	17	> 200	–
glycopeptide 10F2 (Fixed library, round 10), ribosomally translated (peptide) peptide: For-[Hpra′](Man9″)HPYNTSRTSA[Hpra′](Man9″)[Hpra′](Man9″)AALK[Hpra′](Man9″)QVTD[Hpra′](Man9″)YALALFHRILGSGSLGHHHHHHRDYKDDDDK	86	0.6	Kd [10]: 0.5 to 0.6 nM
glycopeptide 10F3 (Fixed library, round 10) (peptide) peptide: For-[Hpra′](Man9(3))DTLHLKQIGG[Hpra′](Man9(3))PNCITQQDVR[Hpra′](Man9(3))TSIPYTYTWPGSGSLGHHHHHHRDYKDDDDK	100	3	–
For-[Hpra′](Man9(3))[Hpra′](Man9(3))AALK[Hpra′](Man9(3))QVTD[Hpra′](Man9(3))YALALFHRILGSGSLGHHHHHHRDYKDDDDK [glycopeptide 10F2-Δ11]	70	0.89	–
glycopeptide 10F12 (Fixed library, round 10) (not fully specified (bridges); cysteine pairing not given here) peptide: For-[Hpra′](Man9″)CYVTVIPA[Hpra′](Man9″)N[Hpra′](Man9″)PEARLGIVCH[Hpra′](Man9″)PGIRRGKALYGSGSLGHHHHHHRDYKDDDDK	90	0.77	–
glycopeptide 10V9 (Variable library, round 10) (peptide) peptide: For-[Hpra′](Man9(3))TSIPYTYLNRSLWTNYRVNSWS[Hpra′](Man9(3))SKNVNV[Hpra′](Man9(3))PLGSGSLGHHHHHHRDYKDDDDK	85	3.9	–
glycopeptide 10F3 -C15S (peptide) peptide: For-[Hpra′](Man9)DTLHLKQIGG[Hpra′](Man9)PNSITQQDVR[Hpra′](Man9)TSIPYTYTWPGSGSLGHHHHHHRDYKDDDDK	63	2.91	–
glycopeptide 10V8 (Variable library, round 10) (peptide) peptide: For-[Hpra′](Man9(3))VLPTIISTNVNPFR[Hpra′](Man9(3))LSIPTYTYL[Hpra′](Man9(3))PITWGEIGSGSLGHHHHHHRDYKDDDDK	94	4.6	Kd [12]: 0.5 to 5 nM
glycopeptide 10V1 (Variable library, round 10) (peptide) peptide: For-[Hpra′](Man9(3))ATKTNCKREKT[Hpra′](Man9(3))DNHVTI[Hpra′](Man9(3))RSIPWYTYRWLPNGSGSLGHHHHHHRDYKDDDDK	97	1.9	–
glycopeptide 10F8 (Fixed library, round 10) (peptide) peptide: For-[Hpra′](Man9(3))LLK[Hpra′](Man9(3))VDQSRL[Hpra′](Man9(3))PVPGIGVTLH[Hpra′](Man9(3))RSIPYSYLPIGSGSLGHHHHHHRDYKDDDDK	97	2.6	–
For-[Hpra′](Man9(3))RSIPWYTYRWLPNGSGSLGHHHHHHRDYKDDDDK [glycopeptide 10V1-Δ9]	20	7.5	–
glycopeptide 10F9 (Fixed library, round 10) (peptide) peptide: For-[Hpra′](Man9(3))RSTLNSLEYR[Hpra′](Man9(3))QYATEDPRIR[Hpra′](Man9(3))ASIPYTYWWPGSGSLGHHHHHHRDYKDDDDK	86	3.1	–
